We go through 69 sequences from the domain aggregation screens of Martell et al. (2025).

A short description of the data set: soluble fraction after stress (log2 fold change); higher = more stays soluble; pooled small domains, quantitative proteomics. The following applies: stress: 50 degC. An outline of the steps:
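The stress applied to every library was 50°C. These custom libraries of small protein domains were pooled and measured at high throughput with quantitative proteomics as the read-out. Aggregation propensity is expressed as the base-two logarithm of the fold change in how much of each protein remains soluble. The higher the value, the more of that protein stays in solution.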
Consider “HMRRVGTALNRSHKVSYGESIQSIAARYNVNPTMLREYNRLKPEATITPGQILRIPPATIAS”, for which the “soluble fraction (log2)” value came out at 0.00426.

With “HMIKIEDILNVESVELSDSEYKKFLNGILINVKNLENGWAKVYSGNEFKGFGIVDKNLLKRKIVID”, the “soluble fraction (log2)” value is -0.426.

Regarding “HMIYMIDPNDEIAVKLDEIYQRYLNRTIDPEGLIFFYNQIRNAQMGYSDVEKRILESPEYVSIPK”, the “soluble fraction (log2)” value was -0.242.

Regarding “HMQFLKPQDVLFLLKLVVLKGPASIFPAVPESLGLSKAEVHNSAKRVRGARLLPHDSWNPLRKNLLEFL”, the “soluble fraction (log2)” value is -0.148.

Consider “HMKKAENEKLNIPYDVTEFLASSIKDDIRMMEGAMVKLLALSSLTKQDITQSLAKRVIQDVLGSSA”, for which the “soluble fraction (log2)” value was -0.097.

With “HMQILVEGVEANQRLDLFLRARLTEFSRSRIQGLVKNGNVLVNGNIARQAYLVQVGDKIELDVPEPVA”, the “soluble fraction (log2)” value was -0.487.

Consider “HMNVNTHKTLILNSTFQPLSLATPQRALALLFSKKINVLKESDIKLRSVGQSVAIPKVAVLTYFVKA”, for which the “soluble fraction (log2)” value is -0.291.

“HMSSSYTEMQLERFKELLNKETLLSSEKNELKNLISDFDKISEIVSPLVVGAYLQLKNEHIETINSLG”: the “soluble fraction (log2)” value was -0.192.

With “HMDAMQAFPNPTVDEIHFVTPTTGRVYNAHGQLVMVLKNAQLVNVRQWSAGQYVIVREDGYAVRWIK”, the “soluble fraction (log2)” value is -1.04.

Regarding “HMKEVKAPMPGMVLRVEVAPGQEVQEGDPLLVLEAMKMENNLKSPASGTIKSVHVEAGKAVEKGAVLVVF”, the “soluble fraction (log2)” value was -0.0671.

“HMPVQSNRDALLDIGQTLQVQAWDAQGSARVSYRGSDWTAEFRGPGAAAPGLHRIIAVQGNRLIVEPA”: the “soluble fraction (log2)” value is 0.174.

“HMAQPIPSGADIRAAREAAGMTLRRFAEYIAGPDFSTWSRYETGKPIRVKNISPEVWQRVRKFIAQNKG”: the “soluble fraction (log2)” value was -0.0609.

Regarding “HMTEKEEERTEDLNYYRLNLISMLKSSYPEYLDDEEFISNRSQEAAEAFEDAVRSGSNYLDASAESNRTLY”, the “soluble fraction (log2)” value was -0.362.

With “HMERAPAYPDGLTQREVEVLRLIASGKTDREIAEELFIGVRTVSTHVGNILNKTNSANRTEAASYANQQGL”, the “soluble fraction (log2)” value is -0.191.

For the sequence “HMVDLAPTEEIIKNLPNNSRSLLIPTLQKIQNAYRYLPSPAMELLSEFLNVTRAEIYGVISFYPSLL”, the “soluble fraction (log2)” value was determined as 0.0871.

For “HMSKTQYTFREVGSQFELHAPSTNHKIMVDANHPKYGWLSSQEAGRVINVYESGKMTSSQDYYGLYKQS”, the “soluble fraction (log2)” value was -0.0727.

Regarding “HMARIDYHAMDSDDLSFSEGELLEIYDKPGSFWWKGRSLVSGDEGDIPS”, the “soluble fraction (log2)” value was -0.157.

Regarding “HMSQLYINATDDGWVIGNLPADAREVLLTTLGGQVVARYHVTAPSLRVKAPRKGVYIVSVETA”, the “soluble fraction (log2)” value was -1.12.

On to “HMIKRITDEQHPVDVDRLLVVTFTNAAASEMRERIGDAIEAALEKDPYNQHLQRQLTLVHNAQITTIDS”, for which the “soluble fraction (log2)” value was -0.0115.

In the case of “HMDVMNEIQQKAFDIYIQSASLKNDFTPISERALAKKLHDMGLKSSMSAIGRWKKKFGWVQSLQNKVTLA”, the “soluble fraction (log2)” value is -0.128.

“HMGESFEELAREISDDTGSKTEGGETGLFPRGVMAPQFEEAAFLLKVGDISEPIRTKFGYHIIKLKEIKP”: the “soluble fraction (log2)” value is -0.156.

With “HMRTGLSGMIGEIGIVKQAIDPEGKVAVHGELWKARADVALAAGQTVRVVAVDGLTMTVEATDSK”, the “soluble fraction (log2)” value is -0.0264.

As for “HMAGAITEREVEVLELLSRGLGNKEIAKELFVSEATVKSHLSHIYTKLAVDTRAGAVAAAIERRIIRAWR”, the “soluble fraction (log2)” value is -1.92.

In the case of “HMAAFGDLLSELRRDMNMTQDELAKVLFVSPGTISNYENNIHFPDVPKLKQIAQYFGVTTDYLLG”, the “soluble fraction (log2)” value is -0.405.

For “HMRSVTLQTDREGDILYVDGKQIGVSPQRLELSYGVHTIRAERGEQHTEKELEVTETGGETVVTLGFG”, the “soluble fraction (log2)” value turned out to be 0.129.

“HMTISDEAMQAGRDAFIQALVAMGAEKNADAMASIEKALSADPGNKEYLATRDLIKKSMGMKK”: the “soluble fraction (log2)” value was 0.44.

As for “HMSGSIIQQAENLERQFGDTREAILGTLSDPKMSEEILETLMERYNKQHGTNWDKNTWAEEWAKANK”, the “soluble fraction (log2)” value is 0.23.

Turning to “HMKIRIIKTASNAKAVQIVSYKNNKRIVLQHIGSAHTDETLNDLKILAEEWIKDYNHQLSIF”, the “soluble fraction (log2)” value was -2.49.

Turning to “HMRLPQEVWEKIRAAYEAHGLSFSELAEMYGVNKSNISRRAKAEGWNQAETQRLITATVENE”, the “soluble fraction (log2)” value worked out at 0.267.

As for “HMNLQGIISQKAIVTQTIEPYETGVAKLNGEEWTAMSKDETRIEAGKLVEVVAIEGVKLIVKEVS”, the “soluble fraction (log2)” value was -0.0794.

Consider “HMQATETFSLIVPMSSAGNRLDVVLSELLPNFSRKKIQDAIKNGDATLNGKAPKIRDKVYGGENITITLIL”, for which the “soluble fraction (log2)” value is -0.432.

Consider “HMYRPQQEFTMRDLFQNNLNGSESASVRRDALGAELGIGYGNAKRFLERLNHYGVSREEFTAALEKLESE”, for which the “soluble fraction (log2)” value was -0.224.

Consider “HMNIEDFKDKVKELKQYTYQELVEDVKLKTDRADVILPASKIYLEAMQQAKVDSIIVPKVGLAEGVAR”, for which the “soluble fraction (log2)” value came to 0.0593.

With “HMQTTITITNTVTGQKAQFPPPFNPMSLSKIGVDETFEKEVFVDGVDTFGYGLDGYLTFYELKDFLRSYQ”, the “soluble fraction (log2)” value was -2.5.

For the sequence “HMGKEDLTAAIKKMTLNDKLDIHKIVANFQTNDSEEVITAVKWLMENNYLLKIKNNYTWNTKEK”, the “soluble fraction (log2)” value was -0.263.

On to “HMPVASNRDVNLDIGERVFVQEWAPNRTARVQYRGSPWEARLAPGAPAAAGEHRVSAVEGNWLVLEPA”, for which the “soluble fraction (log2)” value is -0.0102.

As to “HMEEPEELYRVKILIYNLLVRNGPGILYTRLRRADYPGEYGIYEEKNGYGKISATLSEWISLNTEYVQRLD”, the “soluble fraction (log2)” value was -2.

As to “HMSDDSYLVALAEAYKNATSWDIRRQVLSIMTGVSSYKEISRYIPGLTQYRLSISNLHRLQYGRAAPVP”, the “soluble fraction (log2)” value was 0.0583.

For the sequence “HMNSVSIAPEMLNWVIAHIQMNSLPKQIVEHLTAWISGQKEPTFNQIEKVSRATGIPLGYFFLEQPPKE”, the “soluble fraction (log2)” value is -2.03.

On to “HMGSGQIRYITENTVRVVYGTSKENEFVFQDGKPYPKDTPYHIHYTRNLEEYFMSGVEHDKNSKIILKVD”, for which the “soluble fraction (log2)” value was -0.803.

As for “HMQEVILEKIQLTYLSADKLSKMAEQFSIPVKMYWVDENPMMLMVMGNESDIATFKKVLTQIDIPENKS”, the “soluble fraction (log2)” value was found to be 0.0714.

Regarding “HMRTTTGSEGMIGSIGKAKTDLAPDGKIFIHGELWDATSSSPVSAGQKIEVTQIEGLKLHVKPVL”, the “soluble fraction (log2)” value was determined as 0.268.

“HMDGIDALEPLMRRVFEALPQRRSMTIERAAVAAGLDEESVKIALVRLQLEGYVANDERGWHRSKSPH”: the “soluble fraction (log2)” value was -0.911.

As for “HMNNLTEEAINHLVLEVKNVLLTDALFLGKATDSQLMLRIKETIDQRNGQYNIGMNDRERIARRVFARLR”, the “soluble fraction (log2)” value is -0.189.

In the case of “HMGKTRSTDRTRRAILDAASDLMGKHGTSVSLARIAEAAGMSKGGLLHHFPSRNDLIRALGED”, the “soluble fraction (log2)” value is 0.189.

As to “HMAPDGIEDKEGWLKVLPMITNLSIQMQNLQARGMDYEHIRNLLHETLLRYDDRIDSNLFIPNV”, the “soluble fraction (log2)” value came to 4.47e-05.

As to “HMSYEDLIQAVSGHFGIEIRALLSEDRKKENMIPRQVAMYLLKNKLHYTYERIGNIFSGRNHTAVMYSV”, the “soluble fraction (log2)” value was -0.193.

As for “HMIAASQVLRDARQRSRLTQAELGRRADVPQSVISAYESARREPSVDMLARLVAAAGFDLRIGLTP”, the “soluble fraction (log2)” value was -0.541.

In the case of “HMAEEFESMTEARRLELARLVDSRGFVRVTDAAEELGVSDVTIRGDLSELERRGLLTRVHGGAMPVT”, the “soluble fraction (log2)” value was 0.0215.

As for “HMYAGTWTTESGQWKYRQDDGTYAKGWLQDTDGRWYYFDANGRMLSNTATPDGYQVGEDGAWVNH”, the “soluble fraction (log2)” value is -0.196.

For “HMGEKPTEITLSNAISVQELAEKLYVSETDIIRTLFLDGIIVNINQVLDLETAVKVGDQLGVTITIVE”, the “soluble fraction (log2)” value is -1.2.

For “HMKTALQENVRAYRLERKWTQQALAEALEVSVGAVSKWESGVSRPELETLMRLAELFGVSTDALLGF”, the “soluble fraction (log2)” value was -1.75.

Consider “HMHGEAVVVPNVKGLPMRQAENEIYKQSLKAVAIDSSYVKGMPPGAILEQNPAGGSKVKKGRTVYLTINMD”, for which the “soluble fraction (log2)” value was -0.0918.

As for “HMEDEVSSSAAYQALLEKGVSKTLARSWVIDYGEAYVLDKVDLTTSQAARGKIKSSTAGFLKAAIEEDFHN”, the “soluble fraction (log2)” value was -0.244.

“HMDFFVLVGAYKTPDEAETIRAKIAFSGLDSSVSHGNDGRYRVRIGPFHSEGDARKAQSTLRANDIPGQII”: the “soluble fraction (log2)” value is -0.0926.

Take “HMNESPVLAVLTPTERKVASLVAEGLTNQAIAARMILAEGTVKNHVSTLLHKLQAPDRTALALTLYKAFQ”: the “soluble fraction (log2)” value is -0.469.

“HMAEVIYGAGKTPAQMLGILRTMQAHGQKTVLITRLREEAAEEIGREIPLQYDKTAGVGIVGTLPQPDG”: the “soluble fraction (log2)” value was -0.0493.

For “HMSILPGVYRHYKGNHYQVFYLAKHSETLEDMVVYQALYGERGIWVRPASMWNETVDDQGKQVKRFTYI”, the “soluble fraction (log2)” value is -0.24.

As to “HMARKISVEALGKYFPNSPMLAAAVAVTGVMKKDEFIHEMRASYKHKFAKKPEVIDGNMKALTMTFEA”, the “soluble fraction (log2)” value is -0.126.

Regarding “HMNPETIHNDYKAFIKFAFSGLSYYSKVWNQNREMITPGLLETLWQKYRHLSIGEIETILEKIIKEG”, the “soluble fraction (log2)” value is -1.88.

For “HMTTIFDNINGELRRRHLTQQDLAKTIEIDRRTWSKWQDKNDMPASVLLQIAKWLNVTLDYLTRD”, the “soluble fraction (log2)” value is -2.08.

On to “HMRQSIHTALQLLTPREEEVLNLLVSGKSNKQVAEHFSLSSKTIERHRSSVMRKLDASSFAQLVRIAALR”, for which the “soluble fraction (log2)” value was -3.51.

As to “HMNPDDEMLLTYLTKLLVDKQFIVNSNDIFEYILRRVDRTYDGIYDIVSKLDVLSLEKKRQLTIPLIKEI”, the “soluble fraction (log2)” value amounted to 0.0226.

With “HMADFIGMNATVTERIFPQGFGRISFVYEGNSISEPARSEDGKEIPTGTSVVVLEVRDKVYIVQPL”, the “soluble fraction (log2)” value was -0.221.

On to “HMKQPNSYGSVHKLPGKRRKPWRVRKTSGWLLDEQSGTVKQQYITIGYYATKQEALIALADYNENP”, for which the “soluble fraction (log2)” value is -1.62.

As to “HMDPVATLTPREREVLELMAEGRTNAGIAEAMVVTEGAVEKHIQRIFAKLGLHADGGVHRRVAAVLALLG”, the “soluble fraction (log2)” value was -1.01.

As for “HMSEFVIPLAKYNKALYTQVSLGMRFRMLFETEDSGVRRYMGTITGIGDLDPIRWKNSHWRNLQV”, the “soluble fraction (log2)” value came to 0.111.

Take “HMERAFRILELFDLKQDELPITEIAERTGLPISTAHRLLSTLETLGYIAQNPDNGRYRLGLQTFVLGSR”: the “soluble fraction (log2)” value was -0.987.

“HMNQAIIVPDVKGLPLEEATTFFENNDLRYTVIDSVYTKDVPPGAIYEMVPGAGSKVKEGRIIFVTLNAR”: the “soluble fraction (log2)” value was -0.314.
